Data taken from the supplement of paper PMC9170038.

System: K4 kissing-loop RNA reporter
Test: apparent KD of K4 kissing-loop reporter; higher = weaker reporter binding
Conditions: Eterna round: R107
Protocol: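 RNA-MaP round R107: designed RNA switches with theophylline, tryptophan, arginine or FMN aptamers are transcribed on-chip within common flanks. They are titrated with a labelled K4 kissing-loop RNA reporter in RNA-MaP buffer (100 mM Tris pH 7.5, 80 mM KCl, 4 mM MgCl2), without ligand or with the indicated ligand. Median apparent KD per design.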

[1] = input ligand: theophylline 20 uM
[2] = input ligand: tryptophan 2.4 mM
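Further: bound reporter read as fluorescence of individual clusters on recovered sequencing chips by microscopy, with normalized cluster intensities fitted with a binding model.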

| Sequence | apparent KD of K4 kissing-loop reporter (input ligand: FMN 200 uM) [µM] | apparent KD of K4 kissing-loop reporter (input ligand: arginine 13.2 mM) [µM] | apparent KD of K4 kissing-loop reporter (input ligand: none) [µM] | apparent KD of K4 kissing-loop reporter [1] [µM] | apparent KD of K4 kissing-loop reporter [2] [µM] |
| --- | --- | --- | --- | --- | --- |
| ACCUAGUACGUAGGAUAUCGAACAUCAUUUAGUGAGAUCGAGUGAUGUUCGAUCACGUCUUCAGUUCGAGAAGGACGUACUAGGA [FMN B SS t4] | 0.335 | 0.273 | 0.302 | 0.477 | 0.351 |
| GUAGACGUACCUUCAGUGAUGUUGAAGGAUACCAGAUGUUACCACAUCCCUUGGCAGCCUUGGGAUAACAGUGAGUCGGAAUAUG [Uslediti] | 0.176 | 0.136 | 0.158 | 0.166 | 0.142 |
| UUAUCUAUAUUCGAUACCAGUACCCUGUGUGUUGAUCCUUUUAUAAGUGAUGUUUAUGAGUACCCUUGGCAGCGGGUAUGGGUUU [KL-XTheo-B17] | 0.815 | 0.734 | 0.883 | 0.944 | 0.712 |
| UUAGAGAUCUCAGGAUAUCAGUGAUGUUGGUGUAAAGAUCUGAGAUAGAAUUCUAUCUCAGAUCAAUGAGAAGGGAGAUCUCAUU [AK3.2 Exc FMN B] | 0.338 | 0.179 | 0.192 | 0.219 | 0.174 |
| UGAUAGGACAGAAGGAGCGGUAGUGAUGUUACCAAAAGGAUAAGGUGUCAAAAGACACCCUGCCAGGUAGGUCGCUGUCCUAUCU | 0.102 | 0.1 | 0.107 | 0.0988 | 0.087 |
| GGAUCCACCAGUGAUGUUGGAGAAAACUCCAAGGAUAUGACGAAAGUCAGAAGGUGGUAGACUGGACAAAGUCCGGUAGGAUCCA [FmnA10 A78] | 0.992 | 0.0585 | 0.36 | 0.228 | 0.193 |
| GAGGUACAGGCGGCCGCCACUAGUGAUGUUAGUGAUAGAAGAUAUAGUAAAUAUCGGCAUGUAGAUAGGACCGGGCCUGGUGGAG [vvgtcmullin] | 0.291 | 0.234 | 0.288 | 0.327 | 0.287 |
| UCCUGCAAUCGUCCACGAAAGUGGAUUGAUACCAGAGUCGAAAGACUCCCUUGGCAGCGAGUGAUGUUCGAAGCAGGUAAAUAAA | 0.432 | 0.365 | 0.417 | 0.363 | 0.337 |
| GGCAUAUGAAAUCGCCUAGAGAGAAAGGAUACCAGCACCCGGCGGUGCCCUUGGCAGCCUAGCCCAGUGAUGUUGGGUCCUCUAA [Rasoonanxe] | 0.228 | 0.149 | 0.167 | 0.296 | 0.144 |
| GCCGUACGCAUGGAUACCAGUCUUAGAGUGAUGUUCUAUACGAUUGCGCCUGGAUCAAUGGACCCUUGGCAGCCAUGCGUACGGC | 0.144 | 0.112 | 0.123 | 0.114 | 0.124 |
| GUGUGGAUCCGAAGGAGCGUCCGCAAUCCAGUGAUGUUGGGUGUUGGUUUUAGUAGACGAGGACAGGUAGGUCGCGGAUUUACAA [Same State Arginie B GF 23] | 0.133 | 0.104 | 0.153 | 0.11 | 0.105 |
| AAAUUUUCAAGUGAUACCAGACAUUUCUAUUACAUUAAUAUAGCUAAGUGAUGUUUAGCAGUCCCUUGGCAGCACUAUUUAAUUA [JR_SSTheophyB_Sub014] | 0.201 | 0.265 | 0.253 | 0.355 | 0.216 |
| AAACAUUGGUCGGAUACCAGCUUGAUCGGAAAACGAUCUGCUGGAGUGAUGUUCCAAUAAAGCCCUUGGCAGCCGACCGAUGAAA [MAT - Same State Theophlline B - Mod of Eli - D14] | 0.814 | 0.679 | 1.07 | 0.747 | 0.78 |
| UUAUAUUUUAUAUUUAGUAGAGCUCUCGCUCGAGGACCGGUACGGCCGCCACUCGAGUGAUGUUCGAGUGGGAGAGCUCUACAUU [AK3.3 EXC Tryptophan A] | 0.108 | 0.0995 | 0.0949 | 0.1 | 0.181 |
| CGCGCGCGUUGAGAGGUGCGCGCGAAUGAUACCAGUAUAUAAGAAUACCCUUGGCAGCAUAAGAAAGAUAUAGUGAUGUUGUAUA [SSTheophA.F] | 0.346 | 0.13 | 0.25 | 0.308 | 0.228 |
| AUUAGGCGAAGUGAUGUUUCAUAUAAUGGCAAGGAUAUGUCCUUACACAGAAGGUGCUCUUAGUCAGGUUAUAUUAGGACUGCUA [theeternabot_exclusion_KL_FMN_A_42] | 0.446 | 0.434 | 0.46 | 0.474 | 0.34 |
| GCCUUAUAUCGAGCUACAGCUCGAUUUGGUCGAGGACCGGUACGGCCGCCACUCGAAUGAUAGUGAUGUUAUCAUUAUGGCCUAA [JR_ExcTryptoA_Sub022] | 0.185 | 0.137 | 0.183 | 0.13 | 0.148 |
| UCCUGCAAUCUACCACGAAAGUGGAUGGAUACCAGAGUCGAAAGACUCCCUUGGCAGCCAGUGAUGUUGGAGCAGGUAAAAUAAA | 0.67 | 0.462 | 0.638 | 0.514 | 0.529 |
| UGUCAUGGAAACAUGAACGUUGAUGUUCGACGAGGACCGGUACGGCCGCCACUCGAGUAAUAGUCAGUGAUGUUGACUUGUCUAA [KL-SSTryp-A form1 sub3] | 0.0742 | 0.107 | 0.0918 | 0.131 | 0.0765 |
| GGUAGCAUGGCGGCCGCCACUCUUCAUUAGUGAUGUUAAUGCCGAGUGGGCAAACUCCGCCAGGAGAGGACCGGGCCAUGCUACC | 0.0826 | 0.0751 | 0.0808 | 0.0627 | 0.244 |
| GCCGUACGCAUGGAUACCAGCAACCCUGCCAUCCCAGUGAUGUUGGGAGGAACAUUCUCAUGCCCUUGGCAGCCAUGCGUACGGC | 0.534 | 0.358 | 0.473 | 0.384 | 0.459 |
| AGUGAAGUUAGUGAUGUGUGAGUUUGGGAAGGAGCGCCGAGAACGGCAGGUAGGUCGCCCAGUGAUGUUGGUGUAAAGAUGAGAG [whbob_Ex_Arginine_A_2t121] | 0.275 | 0.184 | 0.239 | 0.232 | 0.208 |

| Sequence | apparent KD of K4 kissing-loop reporter (input ligand: FMN 200 uM) [µM] | apparent KD of K4 kissing-loop reporter (input ligand: arginine 13.2 mM) [µM] | apparent KD of K4 kissing-loop reporter (input ligand: none) [µM] | apparent KD of K4 kissing-loop reporter [1] [µM] | apparent KD of K4 kissing-loop reporter [2] [µM] |
| --- | --- | --- | --- | --- | --- |
| AAAAUAAACCAGUGAUGUUGGUGUCCAGAUACCAGCGACAAAAGUCGCCCUUGGCAGCUGUGGACGUACAAAAUAAGUACGUCCU [MatMod 1 - Jieux - Same State - Theophylline A] | 0.39 | 0.271 | 0.393 | 0.256 | 0.316 |
| CCUAUCUCAUACGAUACCAGUCUAUUGUUACGAGUGAUGUUCGAAUAUUUGCCAUUCAAUGACCCUUGGCAGCGUAUGGGAUAGG [Ex Theophylline B K4 10] | 0.502 | 0.519 | 0.525 | 0.548 | 0.486 |
| CCAUCGCUAUUCGAUACCAGUCAUCACAUCUUUGGUGUGAUAAAGGAGUGAUGUUCCCAAGACCCUUGGCAGCGAAUAGUGAUGG [Theophylline B K4 11] | 0.293 | 0.222 | 0.27 | 0.172 | 0.25 |
| UGGAGUUGACGAAAAGUCAACUCCUGGGAAGGAGCGGACGAAAGUCCAGGUAGGUCGCUCACUACCAGUGAUGUUGGUACUAAAA | 0.144 | 0.351 | 0.296 | 0.2 | 0.215 |
| AAUUCAGUGAUGUUGGAAGGCAAGCGGGAUACCAGCGGAGAAUAACGCCCUUGGCAGCCCAUAUAUCCCAAAUAGAUAAUAGUUC [Same State - Theophylline A (Freestyle 4)] | 0.345 | 0.22 | 0.279 | 0.327 | 0.337 |
| GCCUAGCAGGGAAGGAGCGCCAUAUAAUUAAAAGUUAAUUAAUGAGUGAUGUUCAAAUAAUGGCAGGUAGGUCGCCCUGCUAGGC [KL-SSArg B9] | 0.378 | 0.289 | 0.329 | 0.316 | 0.323 |
| AGACCACAAAGUGGUCAGUGUUCGCUGCAGCGAGGACCGGUACGGCCGCCACUCGCGAGUGAUGUUCGCGAGAGCAGCGAACACA [Omei KL Tryp A Exc A v6] | 0.0909 | 0.0834 | 0.0821 | 0.0873 | 0.116 |
| UUUCGUUUCGUCUGACAUAAUUGGCUAGAAGGAGCGGUAAAAUUACCAGGUAGGUCGCUAGCCCAGUGAUGUUGGGACUAGCAUA [Onqudi] | 0.148 | 0.154 | 0.133 | 0.156 | 0.171 |
| ACGCUAGCUACCGAAAGGUAGCUAGCGAGUGAGGAUAUGUGGAAACACAGAAGGCACAGCGCAGUGAUGUUGUGCGGCGAAAGCC [whbob_SS_FMNA__2th166] | 0.462 | 0.275 | 0.418 | 0.231 | 0.803 |
| UCGGACCCUGGAGGAUAUGAGUCGAGUGAUGUUUGGCGGUCCAUGCCGGUGCGGCGUUAUGCCCUUUUAGAAGGCCAGGGUCCGA [#2 Exclusion - FMN B Attempt #13 (HarryS)] | 0.287 | 0.182 | 0.307 | 0.351 | 0.289 |
| UAUAUAGUGAUGUUAUAUAUACAUUCGGAAGGAGCGUGGUAAAACACAGGUAGGUCGCUGAAAUAAUUAAAAUAAUUUUCUUUUU [AstrosSSArgA#1] | 0.255 | 0.231 | 0.279 | 0.239 | 0.231 |
| UGUCAUUGGUCGGCCGCCACUUCGUGUAGAGUGAUGUUUUGUAGGACGGAUCGAAAGAUCUGUCGAAGGACCGGGACCGAUGACU [FiskerMod 18 - Jieux - Same State - Tryptophan B] | 0.5 | 0.189 | 0.459 | 0.336 | 1.1 |
| UUGGCAGUGAUGUUGCCAGAGUUCACCGAAGGAGCGGGUGAAAACCCAGGUAGGUCGCGGUAGCGGAGUGAUUCUCCGCGAGGGC [Same State Arginine A GF 22] | 0.0905 | 0.091 | 0.0862 | 0.0937 | 0.0914 |
| GUAGGAUGGUGCGAUACCAGACCUGCAGUGAUGUUGCGCCAUAGUGAGUGAUGUUCACCGGUCCCUUGGCAGCGCGUCCAUAAAG [Same State Theophylline B GF 17] | 1.06 | 0.719 | 1.25 | 1.16 | 0.882 |
| ACGAAGGAUGGAAGGAGCGCUCGUCAGUCCUGCGAGUGAUGUUCGUGGGUAAAUAUUCGCGAGCAGGUAGGUCGCCAUCUUGAAC [Veticeen] | 0.146 | 0.104 | 0.137 | 0.121 | 0.135 |
| AAGUAGCUCUCGGCCGCCACUCCUCAGUGAUGUUGAGAUAUUAAGAGCCAAUUGGCUCAUAUAAAGAGGACCGGGAGAGCUACAA [AK4 SS Tryptophan B] | 0.248 | 0.276 | 0.357 | 0.282 | 0.128 |
| GGUCCGGGCUCGGCCGCCACUCCCUCCUGCCGGAAGGUGGGAUACCGAGUGAUGUUCGGUUGGAGGAGGACCGGGAGCCCGGACC [#2 Exclusion - Tryptophan B Attempt #13 (HarryS)] | 0.132 | 0.106 | 0.123 | 0.161 | 0.129 |
| GGGAGUGAUGUUCCCACGUUGUCGGUCCUCCGAGGACCGGUACGGCCGCCACUCGCGACCCAGUGAUGUUGGGACUCACCGUACC [Exclusion Tryptophan A Gf 12] | 0.509 | 0.377 | 0.558 | 0.557 | 0.218 |
| ACGUCCGGAUUGAUCGUGGGCAUGGUCGAUACCAGUAGUUUAAUCUACCCUUGGCAGCGACAUGAGUGAUGUUCAUGUGCGAUGA [KL-XTheo-A7 #analogue] | 0.185 | 0.164 | 0.173 | 0.35 | 0.185 |
| AGGCACGAGCAAGGAUAUCGAGUGGAGUGAUGUUCUGCCGACCCAGGACCGAAAGGUCCUGGGUCGCGAGAAGGUGCUCGUGCCU [#2 Same State - FMN A Attempt #8 (HarryS)] | 0.215 | 0.785 | 0.949 | 0.568 | 0.711 |
| AAUAAGGAGUGAUGUUCCAAGUGAUGUUAACGAGGACCGGUACGGCCGCCACUCGAUACGGCCGGAAAGUAAGAUAAACUAAAAU [Same State - Tryptophan A (Freestyle 2)] | 0.061 | 0.0428 | 0.0523 | 0.0455 | 0.0472 |
